Data published in PMC9482650, “Quantitative fragmentomics allow affinity mapping of interactomes” (Nature Communications, 2022).

What was measured:
Assay in all cases: holdup assay
Set-up in all cases: key: below the threshold = too weak to quantify, mostly under pKd 3.1 to 4
Conditions in all cases: plain residues with an end cap or a label only (N-terminal biotin on a linker: ado-ado)
[1] = biological target: T1, DLG3_3, Q92796
T1 sequence (Q92796 374-475, limits assumed, looked up): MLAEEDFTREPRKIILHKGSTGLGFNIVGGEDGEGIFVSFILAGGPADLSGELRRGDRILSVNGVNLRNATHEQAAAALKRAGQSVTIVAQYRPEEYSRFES

[2] = biological target: GRIP2_6, Q9C0E4
[3] = biological target: MAGI2_6, Q86UL8
[4] = biological target: T2, MPDZ_12, O75970
T2 sequence (O75970 1857-1958, limits assumed, looked up): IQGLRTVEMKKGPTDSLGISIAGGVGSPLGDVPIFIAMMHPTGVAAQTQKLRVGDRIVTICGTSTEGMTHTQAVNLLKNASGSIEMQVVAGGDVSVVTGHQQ

[5] = biological target: T3, MPP6, Q9NZW5
T3 sequence (Q9NZW5 125-219, limits assumed, looked up): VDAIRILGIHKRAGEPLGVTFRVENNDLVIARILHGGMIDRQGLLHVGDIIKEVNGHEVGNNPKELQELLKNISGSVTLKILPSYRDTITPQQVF

[6] = biological target: MAGI2_4, Q86UL8
[7] = biological target: T4, DFNB31_1, Q9P202
T4 sequence (Q9P202 135-233, limits assumed, looked up): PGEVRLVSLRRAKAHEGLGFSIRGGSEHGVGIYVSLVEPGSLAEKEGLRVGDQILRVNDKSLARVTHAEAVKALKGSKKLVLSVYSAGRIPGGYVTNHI

[8] = biological target: IL16_3, Q14005
[9] = biological target: T5, SHANK1, Q9Y566
T5 sequence (Q9Y566 658-767, limits assumed, looked up): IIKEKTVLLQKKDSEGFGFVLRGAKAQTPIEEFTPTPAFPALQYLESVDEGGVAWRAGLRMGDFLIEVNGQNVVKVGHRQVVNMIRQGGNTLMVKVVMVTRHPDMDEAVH

[10] = biological target: LDB3, O75112
[11] = biological target: Inadl_8, Q8NI35
[12] = biological target: PTPN3, P26045
[13] = biological target: DLG4_1, P78352
[14] = biological target: TJP1_3, Q07157
[15] = biological target: T6, APBA3_1, O96018
T6 sequence (O96018 389-490, limits assumed, looked up): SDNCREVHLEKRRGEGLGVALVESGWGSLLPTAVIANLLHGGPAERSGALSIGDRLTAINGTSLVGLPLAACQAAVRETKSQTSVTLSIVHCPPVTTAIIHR

[16] = biological target: CASK, O14936
[17] = biological target: GRIP2_5, Q9C0E4
[18] = biological target: Inadl_1, Q8NI35
[19] = biological target: SCRIB_3, Q14160
[20] = biological target: DLG4_2, P78352
[21] = biological target: LIMK2, P53671
[22] = biological target: T7, PDZD7_3, Q9H5P4
T7 sequence (Q9H5P4 857-944, limits assumed, looked up): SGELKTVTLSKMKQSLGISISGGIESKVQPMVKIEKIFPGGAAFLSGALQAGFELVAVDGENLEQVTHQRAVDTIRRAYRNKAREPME

[23] = biological target: GRIP2_4, Q9C0E4
[24] = biological target: T8, DFNB31_3, Q9P202
T8 sequence (Q9P202 811-907, limits assumed, looked up): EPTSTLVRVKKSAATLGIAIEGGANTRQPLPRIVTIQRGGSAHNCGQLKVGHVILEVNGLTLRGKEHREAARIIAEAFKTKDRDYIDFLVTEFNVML

[25] = biological target: MAGI3_2, Q5TCQ9
[26] = biological target: GRIP2_3, Q9C0E4
[27] = biological target: FRMPD3, Q5JV73
[28] = biological target: T9, LNX2_2, Q8N448
T9 sequence (Q8N448 334-432, limits assumed, looked up): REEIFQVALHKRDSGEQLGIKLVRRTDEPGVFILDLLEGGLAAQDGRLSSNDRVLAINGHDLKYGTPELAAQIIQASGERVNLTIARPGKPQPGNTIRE

[29] = biological target: T10, MPP2, Q14168
T10 sequence (Q14168 180-250, limits assumed, looked up): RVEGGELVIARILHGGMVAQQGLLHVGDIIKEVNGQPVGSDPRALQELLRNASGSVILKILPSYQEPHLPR

Sequence of PTPN3, P26045 (P26045 505-587): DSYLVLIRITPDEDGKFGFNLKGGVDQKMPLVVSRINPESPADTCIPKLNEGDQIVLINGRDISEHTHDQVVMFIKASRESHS
Sequence of CASK, O14936 (O14936 487-570): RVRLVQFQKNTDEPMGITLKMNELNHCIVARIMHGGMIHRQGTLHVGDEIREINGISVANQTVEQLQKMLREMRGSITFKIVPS
Sequence of MAGI3_2, Q5TCQ9 (Q5TCQ9 398-503): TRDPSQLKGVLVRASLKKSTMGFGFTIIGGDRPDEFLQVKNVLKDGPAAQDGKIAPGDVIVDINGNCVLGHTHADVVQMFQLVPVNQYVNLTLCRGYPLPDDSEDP
Sequence of DLG4_1, P78352 (P78352 62-152): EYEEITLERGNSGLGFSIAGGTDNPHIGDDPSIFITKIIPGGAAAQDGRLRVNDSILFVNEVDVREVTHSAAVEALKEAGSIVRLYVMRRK
Sequence of LIMK2, P53671 (P53671 143-248): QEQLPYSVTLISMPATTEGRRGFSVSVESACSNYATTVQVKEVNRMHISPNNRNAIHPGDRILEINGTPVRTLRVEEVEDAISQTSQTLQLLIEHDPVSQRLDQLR
Sequence of GRIP2_6, Q9C0E4 (Q9C0E4 648-740): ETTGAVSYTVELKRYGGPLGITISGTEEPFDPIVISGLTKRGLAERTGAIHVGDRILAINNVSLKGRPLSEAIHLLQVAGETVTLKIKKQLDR
Sequence of Inadl_8, Q8NI35 (Q8NI35 1425-1530): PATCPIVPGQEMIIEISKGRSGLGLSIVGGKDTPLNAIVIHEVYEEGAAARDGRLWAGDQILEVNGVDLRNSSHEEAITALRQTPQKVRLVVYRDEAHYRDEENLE
Sequence of LDB3, O75112 (O75112 1-94): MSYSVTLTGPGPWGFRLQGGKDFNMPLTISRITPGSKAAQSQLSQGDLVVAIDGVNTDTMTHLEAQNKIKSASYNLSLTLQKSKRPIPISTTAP
Sequence of SCRIB_3, Q14160 (Q14160 999-1103): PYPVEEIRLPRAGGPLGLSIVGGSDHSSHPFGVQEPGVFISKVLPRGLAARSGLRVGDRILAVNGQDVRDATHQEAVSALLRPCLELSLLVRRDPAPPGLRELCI
Sequence of GRIP2_4, Q9C0E4 (Q9C0E4 446-548): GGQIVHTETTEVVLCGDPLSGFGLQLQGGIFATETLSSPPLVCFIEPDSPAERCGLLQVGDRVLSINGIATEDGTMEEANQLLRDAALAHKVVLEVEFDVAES
Sequence of FRMPD3, Q5JV73 (Q5JV73 12-100): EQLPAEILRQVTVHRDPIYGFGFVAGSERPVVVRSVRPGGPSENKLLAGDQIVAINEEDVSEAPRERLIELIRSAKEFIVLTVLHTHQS
Sequence of MAGI2_4, Q86UL8 (Q86UL8 772-865): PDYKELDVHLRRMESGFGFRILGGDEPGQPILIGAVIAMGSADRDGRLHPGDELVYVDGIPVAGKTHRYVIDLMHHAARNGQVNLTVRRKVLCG
Sequence of TJP1_3, Q07157 (Q07157 416-512): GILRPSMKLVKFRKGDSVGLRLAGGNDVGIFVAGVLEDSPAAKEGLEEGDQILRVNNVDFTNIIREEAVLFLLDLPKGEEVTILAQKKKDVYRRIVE
Sequence of IL16_3, Q14005 (Q14005 1107-1207): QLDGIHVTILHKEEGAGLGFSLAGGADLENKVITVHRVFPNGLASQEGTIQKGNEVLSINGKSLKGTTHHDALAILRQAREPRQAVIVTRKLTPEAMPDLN
Sequence of Inadl_1, Q8NI35 (Q8NI35 113-229): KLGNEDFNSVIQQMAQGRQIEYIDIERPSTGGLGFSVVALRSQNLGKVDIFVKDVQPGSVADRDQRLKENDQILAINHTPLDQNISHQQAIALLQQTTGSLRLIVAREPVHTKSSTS
Sequence of GRIP2_3, Q9C0E4 (Q9C0E4 238-339): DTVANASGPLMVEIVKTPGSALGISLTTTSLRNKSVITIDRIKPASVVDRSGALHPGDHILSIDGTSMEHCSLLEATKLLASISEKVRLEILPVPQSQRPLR
Sequence of MAGI2_6, Q86UL8 (Q86UL8 1141-1229): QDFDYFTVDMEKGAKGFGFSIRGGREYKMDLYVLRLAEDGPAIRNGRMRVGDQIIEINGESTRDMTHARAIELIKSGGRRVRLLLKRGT
Sequence of DLG4_2, P78352 (P78352 155-259): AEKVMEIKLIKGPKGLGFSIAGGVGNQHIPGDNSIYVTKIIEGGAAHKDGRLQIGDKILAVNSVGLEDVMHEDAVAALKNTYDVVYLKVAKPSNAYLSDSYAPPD
Sequence of GRIP2_5, Q9C0E4 (Q9C0E4 544-642): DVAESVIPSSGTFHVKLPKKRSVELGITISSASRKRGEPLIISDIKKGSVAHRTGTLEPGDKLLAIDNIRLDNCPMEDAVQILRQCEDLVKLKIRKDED

| Binder | pKd [1] | pKd [2] | pKd [3] | pKd [4] | pKd [5] | pKd [6] | pKd [7] | pKd [8] | pKd [9] | pKd [10] | pKd [11] | pKd [12] | pKd [13] | pKd [14] | pKd [15] | pKd [16] | pKd [17] | pKd [18] | pKd [19] | pKd [20] | also measured |
| --- | --- | --- | --- | --- | --- | --- | --- | --- | --- | --- | --- | --- | --- | --- | --- | --- | --- | --- | --- | --- | --- |
| SGDGKTSVWI [GJC1, P36383] | below the threshold | 3.55 | 3.73 | 4.1 | below the threshold | below the threshold | 3.48 | below the threshold | 3.55 | below the threshold | below the threshold | 4.06 | below the threshold | 4.11 | below the threshold | below the threshold | below the threshold | 4.03 | 4.21 | 3.51 | pKd [21]: below the threshold; pKd [22]: below the threshold; pKd [23]: below the threshold; pKd [24]: below the threshold; pKd [25]: below the threshold; pKd [26]: below the threshold; pKd [27]: below the threshold; pKd [28]: 5.42; pKd [29]: below the threshold |
| PGKKPEDSRV [SLCO2B1, O94956] | below the threshold | below the threshold | below the threshold | below the threshold | below the threshold | below the threshold | 3.67 | below the threshold | below the threshold | below the threshold | below the threshold | below the threshold | 3.83 | below the threshold | below the threshold | below the threshold | 3.5 | below the threshold | below the threshold | 3.91 | pKd [21]: below the threshold; pKd [22]: below the threshold; pKd [23]: below the threshold; pKd [24]: below the threshold; pKd [25]: 3.54; pKd [26]: below the threshold; pKd [27]: below the threshold; pKd [28]: below the threshold; pKd [29]: below the threshold |
| GNDPDRGTSI [GRID2, O43424] | below the threshold | below the threshold | 3.58 | below the threshold | below the threshold | below the threshold | 4.46 | below the threshold | 3.54 | below the threshold | below the threshold | 4.52 | below the threshold | below the threshold | below the threshold | below the threshold | below the threshold | below the threshold | 4.29 | below the threshold | pKd [21]: below the threshold; pKd [22]: 4.1; pKd [23]: below the threshold; pKd [24]: below the threshold; pKd [25]: below the threshold; pKd [26]: below the threshold; pKd [27]: below the threshold; pKd [28]: below the threshold; pKd [29]: below the threshold |
| EPAKETTTNV [SLC2A3, P11169] | below the threshold | below the threshold | 3.97 | below the threshold | 3.81 | 3.57 | 3.61 | below the threshold | 3.68 | below the threshold | 3.59 | 4.49 | 4.12 | below the threshold | below the threshold | below the threshold | below the threshold | below the threshold | 3.82 | 4.21 | pKd [21]: below the threshold; pKd [22]: 4.3; pKd [23]: below the threshold; pKd [24]: 4.05; pKd [25]: below the threshold; pKd [26]: below the threshold; pKd [27]: below the threshold; pKd [28]: 4.22; pKd [29]: below the threshold |
